Experimental findings from patent publication US20090022728A1 (RINAT NEUROSCIENCE, published 2009) are described below.

Where no end group is shown, it is not given here.

In assay [1] the target is T1, biotinylated Aβ1-40 peptide (biotinylated (N-biotinylated in Example 7)).
T1 construct: captured on streptavidin (SA) chip; also called Biotinylated Aβ peptide 1-40; Aβ1-40 on SA chip
The experiment in a line: SPR, Fab over N-biotinylated peptide on SA chip. Here is the method: (§1) Affinities of 7G10 antibody were determined using BIAcore3000® as described previously in Example 1. N-biotinylated Aβ1-40, 1-42, and 1-43 were captured on SA chip. Threefold dilution series of anti-Aβ1-40 Fabs, anti-Aβ1-42 Fabs, and anti-Aβ1-43 Fabs respectively, were injected starting with a ⅙ dilution of the 7G10 stock listed above. The chip was regenerated with an 18 sec pulse of 6% EtOH+6 mM NaOH.

For assay [2], the target named is T2, biotinylated Aβ1-42 peptide (biotinylated (N-biotinylated in Example 7)).
T2 construct: captured on streptavidin chip; also called N-biotinylated Aβ1-42
The experiment in a line: SPR, Fab over N-biotinylated peptide on SA chip. The method, then:
as §1

The target of assay [3] is T3, N-biotinylated Aβ1-43 peptide (N-biotinylated).
T3 construct: captured on SA chip
T3 sequence (peptide, as listed by the source): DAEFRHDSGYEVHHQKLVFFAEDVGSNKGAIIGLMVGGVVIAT
The experiment in a line: SPR, Fab over N-biotinylated peptide on SA chip. The method, then: as §1

Another assay deals with T4, Aβ1-16 peptide.
T4 peptide: DAEFRHDSGYEVHHQK
The experiment in a line: ELISA on immobilized Aβ peptides. The method, then:
(§2) To determine the epitope on Aβ peptide that is recognized by antibody 6G, ELISA binding analysis was used. Various Aβ peptides (Global Peptide Services, CO) was immobilized on a ELISA plate. The binding of 6G full antibody (at 20 nM) to the immobilized Aβ was determined by ELISA as described above. […] Thus, antibody 6G binds to the C-terminus of various truncated Aβ peptide, for example, 22-35, 1-38, 1-40, 1-42, and 1-43.

A further assay deals with T5, Aβ33-40 peptide.
T5 construct: also called C-terminal peptide (33-40) of Aβ1-40
T5 peptide: GLMVGGVV
The experiment in a line: ELISA on immobilized Aβ peptides. The method, then: as §2

Assay [4] has as its target T6, Aβ1-40 peptide.
T6 construct: synthetic peptide, not biotinylated; also called 1-40 (WT); beta amyloid 1-40
The experiment in a line: SPR, peptide flowed over 6G mAb on CM5 chip.

Assay [5] has as its target T7, Aβ1-42 peptide.
T7 construct: also called 1-42 (WT)
The experiment in a line: SPR, peptide flowed over 6G mAb on CM5 chip.

The target in another assay is T8, Aβ1-43 peptide.
T8 construct: also called 1-43 (WT)
The experiment in a line: SPR, peptide flowed over 6G mAb on CM5 chip.

For assay [6], the target named is T9, Aβ28-40 peptide.
T9 peptide: KGAIIGLMVGGVV
The experiment in a line: SPR, peptide flowed over 6G mAb on CM5 chip.

Another assay has as its target Aβ1-28 peptide. The experiment in a line: SPR, peptide flowed over 6G mAb on CM5 chip.
For assay [7], the target named is T10, Aβ28-42 peptide.
T10 peptide: KGAIIGLMVGGVVIA
The experiment in a line: SPR, peptide flowed over 6G mAb on CM5 chip.

Assay [8] has as its target T11, Aβ22-35 peptide.
T11 peptide: EDVGSNKGAIIGLM
The experiment in a line: SPR, peptide flowed over 6G mAb on CM5 chip.

The target of assay [9] is Aβ1-38 peptide. The experiment in a line: SPR, peptide flowed over 6G mAb on CM5 chip.
Chain of Aβ1-38 peptide (peptide, as listed by the source): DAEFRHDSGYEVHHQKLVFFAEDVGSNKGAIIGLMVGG
Assay [10] deals with T12, Aβ17-40 peptide.
T12 peptide: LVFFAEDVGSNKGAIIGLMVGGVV
The experiment in a line: SPR, peptide flowed over 6G mAb on CM5 chip.

The target in assay [11] is T13, Aβ17-42 peptide.
T13 peptide: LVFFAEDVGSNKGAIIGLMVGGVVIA
The experiment in a line: SPR, peptide flowed over 6G mAb on CM5 chip.

For assay [12], the target named is Aβ1-36 peptide. The experiment in a line: SPR, peptide flowed over 6G mAb on CM5 chip.
Chain of Aβ1-36 peptide (peptide, as listed by the source): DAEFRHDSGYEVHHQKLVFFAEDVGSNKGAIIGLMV
For assay [13], the target named is Aβ1-37 peptide. The experiment in a line: SPR, peptide flowed over 6G mAb on CM5 chip.
Chain of Aβ1-37 peptide (peptide, as listed by the source): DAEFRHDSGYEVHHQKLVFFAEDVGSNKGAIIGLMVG
Assay [14] deals with Aβ1-39 peptide. The experiment in a line: SPR, peptide flowed over 6G mAb on CM5 chip.
Chain of Aβ1-39 peptide (peptide, as listed by the source): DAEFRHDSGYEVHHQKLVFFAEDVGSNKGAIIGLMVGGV
The target of assay [15] is T14, Aβ28-40-NH2 peptide (carboxy-terminal amidated).
T14 peptide: KGAIIGLMVGGVV-NH2
The experiment in a line: SPR, peptide flowed over 6G mAb on CM5 chip.

Assay [16] addresses T15, biotinylated Aβ 19-33 peptide with C-terminal glycine (also: biotinylated, site not given here).
T15 peptide: FFAEDVGSNKGAIIGG
The experiment in a line: ELISA on biotinylated peptides on streptavidin plates. Here is the method: (§3) ELISA was used for measuring binding of antibody 6G and variants to biotinylated Aβ peptides. NUNC maxisorp plates were coated with 6 ug/ml of streptavidin (Pierce, 21122) in PBS pH 7.4 for more than 1 h at 4° C. Plates were blocked with 1% BSA in PBS buffer pH 7.4. After washing, biotinylated Aβ peptides in PBS pH 7.4 were incubated 1 hour at room temperature. Primary antibody (from cell supernatants, serum containing anti-Aβ antibody, or purified full antibody or Fabs at desired dilution) was incubated with the immobilized Aβ peptides for 1 h at room temperature. After washing, plates were incubated with secondary antibody, a HRP conjugated goat anti-human kappa chain antibody (MP Biomedicals, 55233) at 1:5000 dilution. After washing, bound secondary antibody was measured by adding TMB substrate (KPL, 50-76-02, 50-65-02). HRP reaction was stopped by adding 1M phosphoric acid and absorbance at 450 nm was measured.
(§4) Epitope mapping of antibody 6G was performed by ELISA assay. Biotinylated 15-mer or 10-mer of various Aβ peptides (these peptides have glycine added to the C-terminal end) were immobilized on streptavidin coated plates. Antibody 6G (from 2.5 ug/ml to 10 ug/ml) was incubated with the immobilized peptides and binding was measured as described above.

Assay [17] concerns the target T16, biotinylated Aβ 26-40 peptide with C-terminal glycine (also: biotinylated, site not given here).
T16 peptide: SNKGAIIGLMVGGVVG
The assay is described as above. The method, then:
as §3, §4

The target of assay [18] is T17, biotinylated Aβ 27-41 peptide with C-terminal glycine (also: biotinylated, site not given here).
T17 peptide: NKGAIIGLMVGGVVIG
The assay is described as above. The method, then:
as §3, §4

Assay [19] addresses T18, biotinylated Aβ 24-33 peptide with C-terminal glycine (also: biotinylated, site not given here).
T18 peptide: VGSNKGAIIGG
The description is as above. The method, then:
as §3, §4

Assay [20] concerns the target T19, biotinylated Aβ 26-35 peptide with C-terminal glycine (also: biotinylated, site not given here).
T19 peptide: SNKGAIIGLMG
Described as above. Here is the method:
as §3, §4

Assay [21] has as its target T7, Aβ1-42 peptide. The experiment in a line: SPR, peptide flowed over 6G mAb on CM5 chip; reference Aβ1-40.
Assay [22] has as its target T9, Aβ28-40 peptide. Described as above.
The target of assay [23] is T10, Aβ28-42 peptide. The assay is described as above.
For assay [24], the target named is T11, Aβ22-35 peptide. Described as above.
In assay [25] the target is Aβ1-38 peptide. The assay is described as above.
Assay [26] concerns the target T12, Aβ17-40 peptide. The description is as above.
Assay [27] has as its target T13, Aβ17-42 peptide. The assay is described as above.
Assay [28] addresses Aβ1-36 peptide. Described as above.
Assay [29] has as its target Aβ1-37 peptide. Described as above.
The target in assay [30] is Aβ1-39 peptide. Described as above.
The target in assay [31] is T14, Aβ28-40-NH2 peptide (carboxy-terminal …). The description is as above.
For assay [32], the target named is T6, Aβ1-40 peptide. The experiment in a line: SPR, peptide flowed over 6G mAb on CM5 chip; the reference itself.

Chain of Aβ1-28 peptide (peptide, as listed by the source): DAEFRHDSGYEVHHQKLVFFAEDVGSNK

B1: murine antibody 7G10 (Fab) (Fab, V domains shown)
VH: EVKLVESGGDLVKPGGSLKLSCAASGFTFSTYAMSWIRQTPEKRLEWVASIGNSSRTYYPDSVKGRFTISRDNAGSILYLQMSSLRSEDTAIYYCARGEDGNYAWFTYWGQGTQVTVS
VL: DIVLTQSPATLSVTPGDSVSLSCRASQSVKNNLHWYQQKSHESPRLLIKYTFQSMSGIPSRFSGSGSGTDFTLIINSVETEDFGMYFCQQSNRWPLTFGAGTKLEL
notes: Fab was injected in the Biacore assay; also called m7G10
As to B1, in assay [1], the binding result is reported as “no binding”. For the same molecule, the figures for the Kd in [2] and in assay [3] were 37.6 nM and 41 nM, respectively.

B2: antibody 6G (full monoclonal antibody) (antibody, human IgG2, kappa, V domains shown)
VH: QVQLVQSGAEVKKPGASVKVSCKASGYTFTTYAIHWVRQAPGQGLEWMGFTSPYSGVSNYNQKFKGRVTMTRDTSTSTVYMELSSLRSEDTAVYYCARFDNYDRGYVRDYWGQGTLVTVSS
VL: DIVMTQSPDSLAVSLGERATINCRASESVDNDRISFLNWYQQKPGQPPKLLIYAATKQGTGVPDRFSGSGSGTDFTLTISSLQAEDVAVYYCQQSKEFPWSFGGGTKVEIKR
notes: human IgG2a constant region with A330P331 to S330S331; human kappa light chain; also called 6G full antibody; 6G monoclonal antibody
As for B2, the binding result is listed as “no binding (tested: 20 nM)” with Aβ1-16 peptide; “no binding (tested: 20 nM)” with Aβ33-40 peptide; “binds” in the assay with Aβ1-43 peptide; “no binding” with Aβ1-28 peptide; “no binding (tested: 2.5 ug/ml to 10 ug/ml)” in [16]; “no binding (tested: 2.5 ug/ml to 10 ug/ml)” in assay [17]. For the same molecule, the binding result in assay [18], in assay [19] and in assay [20] was “no binding (tested: 2.5 ug/ml to 10 ug/ml)” each time. For the same molecule, the off-rate (koff) with Aβ1-40 peptide [4] came to 0.000132 s⁻¹; in the assay with Aβ1-42 peptide [5], 0.0019 s⁻¹; with Aβ28-40 peptide [6], 0.00064 s⁻¹; with Aβ28-42 peptide [7] it was 0.00337 s⁻¹; in the assay with Aβ22-35 peptide [8], 0.0285 s⁻¹; with Aβ1-38 peptide [9], 0.0093 s⁻¹. Moreover, the koff worked out at 0.000215 s⁻¹ in the assay with Aβ17-40 peptide [10]; 0.0465 s⁻¹ with Aβ17-42 peptide [11]; 0.0205 s⁻¹ with Aβ1-36 peptide [12]; 0.0149 s⁻¹ with Aβ1-37 peptide [13]; 0.00792 s⁻¹ in the assay with Aβ1-39 peptide [14]; 0.00362 s⁻¹ in [15]. Moreover, the “koff Aβ peptide/koff Aβ1-40 (fold loss of affinity)” value with Aβ1-42 peptide [21] worked out at 14.4 fold; in the assay with Aβ28-40 peptide [22] it was 4.8 fold; in the assay with Aβ28-42 peptide [23], 25.5 fold; with Aβ22-35 peptide [24], 216 fold; with Aβ1-38 peptide [25] it was 70.4 fold; with Aβ17-40 peptide [26], 1.6 fold. Moreover, the “koff Aβ peptide/koff Aβ1-40 (fold loss of affinity)” value stood at 352 fold with Aβ17-42 peptide [27]; 155 fold with Aβ1-36 peptide [28]; 113 fold in the assay with Aβ1-37 peptide [29]; 60 fold with Aβ1-39 peptide [30]; 27.4 fold in [31]; 1 fold in the assay with Aβ1-40 peptide [32].
